US7272508B2, “Small molecule mimetics of erythropoietin” (The Scripps Research Institute, priority 1996, dated 2007)
Values belong to the molecule of their own block, whether it stands above or below them. Positions of bridges follow the written chain, without caps; N, C: chain ends. No end group written: not given here.

B2: EPO binding protein (EBP), extracellular fragment of human EPO receptor, residues 1-225 (receptor, UniProt P19235 25-249, looked up)
chain: APPPNLPDPKFESKAALLAARGPEELLCFTERLEDLVCFWEEAASAGVGPGNYSFSYQLEDEPWKLCRLHQAPTARGAVRFWCSLPTADTSSFVPLELRVTAASGAPRYHRVIHINEVVLLDAPVGLVARLADESGHVVLRWLPPPETPMTSHIRYEVDVSAGNGAGSVQRVEILEGRTECVLSNLRGRTRYTFAVRARMAEPSFGGFWSAWSEPVSLLTPSDLD
notes: range 1-225; they probably count on the mature receptor without signal peptide; Two EBP molecules stand in the asymmetric unit with two peptides; also called EBP1; EBP2

Tests used:
[1] = tested on: nascent red blood cell production; experiment: in vivo assays of nascent red blood cell production; details: mice; two different in vivo assays of nascent red blood cell production
[2] = molecular target: T1, EBP (extracellular fragment of human EPO receptor, residues 1-225) (Homo sapiens, UniProt P19235); experiment: DPDPB crosslinking of EBP in solution (peptide-dependent dimerization); type: biochemical; details: co-incubation of EMP1, DPDPB and EBP; no significant dimer in the absence of peptide
T1 construct: consisting of residues 1-225, was expressed in Escherichia coli; made in house; host or cells: Escherichia coli
T1 sequence (P19235 25-249): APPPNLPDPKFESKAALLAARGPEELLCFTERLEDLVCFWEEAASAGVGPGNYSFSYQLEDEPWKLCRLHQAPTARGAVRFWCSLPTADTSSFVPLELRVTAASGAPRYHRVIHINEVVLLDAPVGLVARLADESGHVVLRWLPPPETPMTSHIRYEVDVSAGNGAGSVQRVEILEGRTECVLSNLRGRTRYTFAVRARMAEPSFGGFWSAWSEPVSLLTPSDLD
Description: To explore the interaction of EMP1 with EBP in solution we employed a bifunctionalsulphydryl reactive crosslinker DPDPB, [1,4-di-(2′-pyridyldithio propionamido) butane], in an attempt to stabilize a peptide-dependent dimeric structure. […] A dimeric EBP product is formed by co-incubation of EMP1, DPDPB and EBP. The amount of dimeric product increases with peptide concentration and no significant dimer product is observed in the absence of peptide. DPDPB-crosslinked products formed through disulfide-exchange reactions should be readily reversible by reduction as is seen for the covalently-linked EMP1-mediated dimer. […] The Cys^181 residues in D2 of the EBP dimer are 20.7 Å apart (Sγ-Sγ distance) which approximates the 16 Å length (and approximately 2 Å in bond length at each end) of the DPDPB cross-linker.

EPO responsive cells = experiment: phosphorylation events and cell cycle progression in EPO responsive cells; type: cell-based
[3] = tested on: cell lines engineered to be responsive to EPO; experiment: cellular proliferation of cell lines engineered to be responsive to EPO; type: cell-based
EPO receptor = molecular target: T2, EPO receptor (Homo sapiens, UniProt P19235); experiment: receptor binding assays, competition with EPO
T2 sequence (P19235 25-508): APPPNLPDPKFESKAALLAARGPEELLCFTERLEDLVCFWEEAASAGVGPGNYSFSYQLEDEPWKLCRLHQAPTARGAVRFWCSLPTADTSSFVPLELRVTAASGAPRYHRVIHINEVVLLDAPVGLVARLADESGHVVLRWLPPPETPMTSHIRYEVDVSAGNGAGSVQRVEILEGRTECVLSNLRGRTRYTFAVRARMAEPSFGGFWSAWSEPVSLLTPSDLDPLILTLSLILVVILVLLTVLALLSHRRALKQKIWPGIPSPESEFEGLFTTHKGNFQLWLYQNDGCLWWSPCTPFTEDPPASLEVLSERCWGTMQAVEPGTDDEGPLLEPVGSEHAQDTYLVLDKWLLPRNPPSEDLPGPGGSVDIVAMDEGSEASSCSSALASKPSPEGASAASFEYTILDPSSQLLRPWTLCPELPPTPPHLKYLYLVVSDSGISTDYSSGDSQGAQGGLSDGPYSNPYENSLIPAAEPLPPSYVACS

[4] = molecular target: B2; experiment: DPDPB crosslinking in solution; dimeric product increases with peptide concentration
[5] = molecular target: the molecule itself; experiment: DPDPB sulphydryl crosslinking of EBP in solution

competition with EPO in receptor binding assays (EPO receptor): competes with EPO
Molecule: GGTYSCHFGPLTWVCKPQGG (disulfide 6-15 (inferred)) [EMP1]
erythropoietic effects [1]: significant erythropoietic effects
formation of dimeric EBP product [2]: mediates formation of a soluble EBP dimer complex in solution
cascade of phosphorylation events and cell cycle progression (EPO responsive cells): induce a similar cascade of phosphorylation events and cell cycle progression
induction of cellular proliferation [3]: induces cellular proliferation

binding result [4]: binds
B1: EMP1 (EPO Mimetic Peptide 1) (peptide)
peptide: GGTYSCHFGPLTWVCKPQGG
modifications: disulfide 6-15
notes: also called RWJ 61233; peptide-2

Molecule: B2
binding result [5]: no binding
